Reference: paper PMC7082060, “Structure of mouse coronavirus spike protein complexed with receptor reveals mechanism for viral entry” (PLoS Pathogens, 2020)

Experiments:
[1] = target: MHV spike ectodomain (S-e), strain A59 (mouse hepatitis coronavirus (MHV), strain A59) (UniProt P11224)
[2] = target: MHV spike ectodomain (S-e), strain A59 (mouse hepatitis coronavirus (MHV), strain A59) (UniProt P11224); assay: cryo-EM structure
cryo-EM structure = target: the molecule itself; assay: cryo-EM structure

Mouse CEACAM1a ectodomain (D1-D4), C-terminal His6 tag (receptor)
negative-stain EM: share of S-e molecules in the post-fusion conformation after high concentration of trypsin with CEACAM1a (11.75% without CEACAM1a) [1]: 50.9% | stoichiometry N (CEACAM1a molecules per S-e trimer) [2]: 3

B1: MHV spike ectodomain (S-e), strain A59 (domain or fragment)
chain: YIGDFRCIQLVNSNGANVSAPSISTETVEVSQGLGTYYVLDRVYLNATLLLTGYYPVDGSKFRNLALRGTNSVSLSWFQPPYLNQFNDGIFAKVQNLKTSTPSGATAYFPTIVIGSLFGYTSYTVVIEPYNGVIMASVCQYTICQLPYTDCKPNTNGNKLIGFWHTDVKPPICVLKRNFTLNVNADAFYFHFYQHGGTFYAYYADKPSATTFLFSVYIGDILTQYYVLPFICNPTAGSTFAPRYWVTPLVKRQYLFNFNQKGVITSAVDCASSYTSEIKCKTQSMLPSTGVYELSGYTVQPVGVVYRRVANLPACNIEEWLTARSVPSPLNWERKTFQNCNFNLSSLLRYVQAESLFCNNIDASKVYGRCFGSISVDKFAVPRSRQVDLQLGNSGFLQTANYKIDTAATSCQLHYTLPKNNVTINNHNPSSWNRRYGFNDAGVFGKNQHDVVYAQQCFTVRSSYCPCAQPDIVSPCTTQTKPKSAFVNVGDHCEGLGVLEDNCGNADPHKGCICANNSFIGWSHDTCLVNDRCQIFANILLNGINSGTTCSTDLQLPNTEVVTGICVKYDLYGITGQGVFKEVKADYYNSWQTLLYDVNGNLNGFRDLTTNKTYTIRSCYSGRVSAAFHKDAPEPALLYRNINCSYVFSNNISREENPLNYFDSYLGCVVNADNRTDEALPNCDLRMGAGLCVDYSKSRRAHRSVSTGYRLTTFEPYTPMLVNDSVQSVDGLYEMQIPTNFTIGHHEEFIQTRSPKVTIDCAAFVCGDNTACRQQLVEYGSFCVNVNAILNEVNNLLDNMQLQVASALMQGVTISSRLPDGISGPIDDINFSPLLGCIGSTCAEDGNGPSAIRGRSAIEDLLFDKVKLSDVGFVEAYNNCTGGQEVRDLLCVQSFNGIKVLPPVLSESQISGYTTGATAAAMFPPWSAAAGVPFSLSVQYRINGLGVTMNVLSENQKMIASAFNNALGAIQDGFDATNSALGKIQSVVNANAEALNNLLNQLSNRFGAISASLQEILTRLEAVEAKAQIDRLINGRLTALNAYISKQLSDSTLIKVSAAQAIEKVNECVKSQTTRINFCGNGNHILSLVQNAPYGLYFIHFSYVPISFTTANVSPGLCISGDRGLAPKAGYFVQDDGEWKFTGSSYYYPEPITDKNSVIMSSCAVNYTKAPEVFLNTSIPNPPDFKEELDKWFKNQTSIAPDLSLDFEKLNVT
notes: also called MHV S-e; recombinant MHV S-e; not shown: GCN4 trimerization tag, C-terminal, kept; His6, C-terminal, kept
stoichiometry N (cryo-EM structure): 3
